B1: TPR t1 (parent)
chain: GACCAAUCUGCCCUCAGAGCUCGAGAACAUCUUCGGAUGCAGAGGAGGCAGGCUUCGGUGGCGCGAUAGCGCCAACGUCCUCAACCUCCAAUGCAUCCCACCACAUGAUGAUGCCUGAAGAGCCUUGGUUUUUUG

Variants of: B1
Experiment: polymerase ribozyme fitness, log enrichment relative to wild type (log ratio); higher = more active; in vitro selection for triplet polymerase activity
In short: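 Input and output libraries were sequenced on Illumina after a single in vitro selection round, run in triplicate on PCR-built, transcribed mutant libraries of each subunit of a heterodimeric triplet polymerase ribozyme. Selection annealed libraries to a biotinylated primer, the partner subunit and triplets, incubated them frozen at −7 °C, then gel-excised extended constructs for streptavidin-bead capture and RT-PCR. Genotypes with ≥10 input reads and ≥1 read per output were kept. Fitness is the logarithm, taken in base 2, of genotype enrichment divided by wild-type enrichment, using inverse-variance-weighted replicate averages.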

Variant	polymerase ribozyme fitness (log ratio)
C11U A43U C56U C114G G128C	-5.28
C11U G71C	-0.699
C11G C49A G52U U131A	-1.34
C11G C62U	-0.108
C12A C86A U112A	0.277
C11U C49A U55C G60A U87A C88G A95C A121U	-2.74
C11U A26U C49G	-3.4
C11G A27C G113C G127C	-5.64
C11G C20A A26U C85U A90U A121C	-4.44
C11U U109G	-5.84
C11U U78G A95C G113U C114G	-4.56
C11U U38G G57U G69C A74G G110A	-7.09
C11U G60C A84U	-0.912
C12A C28G C34A C80U C123A	-6.06
C11U A100C	-1.31
C11G A37U G71A C79A	-1.37
C11G G69A C70A	-4.98
C11G A27C G48A C94G	-4.21
C11U U54C G63U C85A	-2.46
C12A C62U A83G A100C	-3.89
C11G C53U G61A G107A	-5.9
C12A A29U G93U	-2.79
C11U C49A G107U G120A	-4.45
C11G A50U A66G U87C C115U A118C	-6.65

Variant	polymerase ribozyme fitness (log ratio)
C12A C40U C89A U125A U130G	-5
C11G G60A C70U	-0.917
C11U G45A C89G A121G	0.687
C11U G57U	-0.202
C11G A27U G47C A83U	-3.57
C11U G51U A119U	-3.53
C11G G39A C124A	1.48
C12A A27U G63A	-5.2
C11G G48U C72A	-0.215
C11G G17U G61A A105G	-6.42
C11U A16C G93C	-4.45
C12A C20U G47U	-4.43
C11U A18U G69U	-0.642
C11U G19A C49U C56U U59C C114U	-2.93
C11U C15A G39C G61C C114A	-5.39
C12A A74G	-0.0689
C12A A74U	-0.922
C11G A74U C76A U78A C80U G93U G135C	-3.08
C11U G42A U96A	-3.35
C11A U55G C80U C104U G113A	-4.77
C12A A84U U130A	-1.77
C12A C15U G48C U92C U96A G122A	-4.12
C11G G17U A50U G71U C85A U87C	-5.37
C11A G77U U87G U106G G113C U125G	-4.71

Variant	polymerase ribozyme fitness (log ratio)
C11G C53G U96G A105C U112G	-5.28
C11G C31A A41U C70G G113U	-5.92
C12A C40U U59A A111G C124A	-0.777
C11G C20A C53G U132A	-2.13
C11U G48A G61A C86G	-1.75
C11G A37U G42U	-0.864
C11G G39A G60C	-0.748
C11G C40A G122A G127U	-1.57
C11G C20G C49A G117C	-5.23
C11U U38A G120C	0.779
C11U C53U A84G	-1.32
C11U C20U G63A U87C	-1.21
C11G U21G G93A	-2.28
C11U U131G	-1.44
C11G C13U C56U G69A G77C C101A	-5.25
C11U U30A G61U	-4.45
C11G G52U A118G C124G	0.453
C11U G42A	-2.48
C11G C20U G63A	-2.21
C11G G47A	-0.824
C11G G47U	-0.345
C11U A37C G45U G58A	-2.72
C11G G122A	0.352
C11G G110U U125A	-0.479

Variant	polymerase ribozyme fitness (log ratio)
C11U C85G U109G C123A	-5.74
C11G G47U C56U U112C G122A	-0.322
C12A A18U C56U C79U C115U A118C U131C	-3.23
C11U A74C A111U	-3.83
C11U C15A C101G	-3.87
C11G G61U C86A U106G C114U	-4.18
C11G G77U C80U G113U	-3.12
C11U G52A G57U A95U	-1.32
C11G C70G C123U	-0.504
C11G C40A	-1.54
C12A A46U	-1.75
C11U G17U G48A C114G	-6.05
C11G G19C G23A G63A A83C C114U C115U C123G	-7.99
C11G U14A A26C C80A C89U C124U	-6.54
C12A C28U G44A C49G C72U C86A	-4.58
C11U C13U G44C C86G U116C U132C	-1.99
C11U C40U G60U G77C A111U	-4.37
C11U G120U G122U	1.38
C12A C73U C76A G120C	-0.37
C11U C15G G51U A119G U133A	-2.44
C12A C40A C86A C101U U106G	-5.32
C11G G107C	-4.6
C11U A41G C56G C124A	1.04
C12A C85G U116C	-3.68

Variant	polymerase ribozyme fitness (log ratio)
C12A C40U C99U	-4.15
C11G G36A	0.396
C11G C115U	-1.01
C11G A68G U81A U106A G110A G113U A121G	-6.2
C11U A27U G71U C101G C104U A111C	-6.17
C11U A118U	-0.464
C11G A37C A46U G120C G128C	-0.871
C12A C86G C123A	0.105
C11G G35A	-2.51
C12A A18U C76G G77U U96A	-4.3
C11G C85G	-1.55
C11A G107A	-5.12
C11U G52A U92G C102A G122U	-6.57
C11A G71U	-1.08
C11G G117U G127U	-3.47
C11U G127U	-2
C11U C53U C72U C82G C123G	-0.853
C11G G113A U133A	-1.34
C11G G51A C72A	-2.19
C11G C40A C76G C86U C114U U125C	-5.11
C11G G42C A68U C72A A91U G113C	-8.47
C11A U21A C40U G47A C49A G57A G58C G61U	-5.81
C12A C28U G60A G122A U133G	-2.67
C11U C34G C53A G71A	-6.35

Variant	polymerase ribozyme fitness (log ratio)
C11U A16U U112A	-0.434
C11G C12A C64U U96C A108G	-2.32
C11G U32G U125A U126G	-6.54
C11U G19C G71A U116C A119U G122A	-6.27
C11U G120U	-0.185
C11U G120A	0.0588
C11U G120C	1.11
C11U C56A C104A C115G	-6.27
C11U A105C A118G	-2.52
C11U A24G G47U G77U U116C	-7.91
C11G C28U	-2.03
C11G A50U G93U G113U	-4.55
C11G G52A C56A	-0.203
C11A U116G	-4.36
C11G A29G C49G G93U	-3.07
C11G A18U G42C C89A	-0.965
C11G C80U	-0.0495
C11U C53U C72U C82G	-1.43
C11G A43G U59A	-1.75
C11U C15U A16C G42A	-2.92
C12A C85G	-2.79
C11G A84U	-0.202
C12A A26G	-1.73
C11G C12U G42C G69C	-5.66

Variant	polymerase ribozyme fitness (log ratio)
C11G A18U C72A A91U G110C	-5.23
C11G C28G A105U G110U	-6.33
C11U C28U C82U G120U	-2.14
C11U C12A U96C	-2.18
C12A C53U C56G G135A	-2.18
C12A A37U C114G	-3.99
C12A A27G G93A	-5.16
C12A C62G U78C C79A C85G	-7.47
C11G U38A G45U A50C	-2.51
C11U C13A C88U	-2.38
C11G G19C C73G	-3.75
C11G G48C A66G G110A	-3.11
C11G C15G G113U	-4.66
C11U C124A	1.7
C11G C12A C49U C85A A91C	-2.76
C12A C40A C72A U130A	-2.02
C11G A16G G60A C64U G110A A118G	-6.79
C11G C22U G44U	-4.93
C11U C99U	-3.13
C11U C85G	-2.37
C11G G63A A111G	-0.361
C11U A29U	-2.46
C11U A29C	-3.12
